Results reported in PMC4600597.

System: C[C@H](CCC[C@@H](C)[C@H]1CC[C@H]2[C@@H]3CCC4=CC(=O)CC[C@]4(C)[C@H]3CC[C@]12C)C(=O)SCCNC(=O)CCNC(=O)[C@H](O)C(C)(C)COP(=O)(O)OP(=O)(O)OC[C@H]1O[C@@H](n2cnc3c(N)ncnc32)[C@H](O)[C@@H]1OP(=O)(O)O
Assay: purified protein
Settings: pH 8.5; 25.0 °C

“MCR (Rv1143) (Mycobacterium tuberculosis H37Rv)” showed a Km of 6.5 ± 1.4 µM.
